# Data: the supplement of paper PMC5998384
# Tests used:
# HeLa Kyoto [1] = assay: solubility in G1/S (NP-40 vs SDS abundance) (log2 ratio); higher = more soluble; details: cell cycle stage: G1/S
# HeLa Kyoto [2] = assay: solubility change mitosis vs G1/S (difference of NP-40 vs SDS log2 ratios) (log2 ratio difference); higher = more soluble in mitosis
# 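For solubility change mitosis vs G1/S (difference of NP-40 vs SDS log2 ratios) in this document: synchronized HeLa Kyoto cells (double thymidine block for G1/S, nocodazole release for mitosis), protein amounts in NP-40 versus SDS lysates quantified by mass spectrometry, three biological replicates.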
# 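For solubility in G1/S (NP-40 vs SDS abundance) in this document: HeLa Kyoto cells arrested at G1/S by double thymidine block, proteins quantified by TMT10plex mass spectrometry in mild NP-40 versus SDS extracts, three biological replicates.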
Sequence,solubility in G1/S (log2) (HeLa Kyoto [1]),solubility change mitosis (log2) (HeLa Kyoto [2])
MAASRRSQHHHHHHQQQLQPAPGASAPPPPPPPPLSPGLAPGTTPASPTASGLAPFASPRHGLALPEGDGSRDPPDRPRSPDPVDGTSCCSTTSTICTVAAAPVVPAVSTSSAAGVAPNPAGSGSNNSPSSSSSPTSSSSSSPSSPGSSLAESPEAAGVSSTAPLGPGAAGPGTGVPAVSGALRELLEACRNGDVSRVKRLVDAANVNAKDMAGRKSSPLHFAAGFGRKDVVEHLLQMGANVHARDDGGLIPLHNACSFGHAEVVSLLLCQGADPNARDNWNYTPLHEAAIKGKIDVCIVLLQHGADPNIRNTDGKSALDLADPSAKAVLTGEYKKDELLEAARSGNEEKLMALLTPLNVNCHASDGRKSTPLHLAAGYNRVRIVQLLLQHGADVHAKDKGGLVPLHNACSYGHYEVTELLLKHGACVNAMDLWQFTPLHEAASKNRVEVCSLLLSHGADPTLVNCHGKSAVDMAPTPELRERLTYEFKGHSLLQAAREADLAKVKKTLALEIINFKQPQSHETALHCAVASLHPKRKQVTELLLRKGANVNEKNKDFMTPLHVAAERAHNDVMEVLHKHGAKMNALDTLGQTALHRAALAGHLQTCRLLLSYGSDPSIISLQGFTAAQMGNEAVQQILSESTPIRTSDVDYRLLEASKAGDLETVKQLCSSQNVNCRDLEGRHSTPLHFAAGYNRVSVVEYLLHHGADVHAKDKGGLVPLHNACSYGHYEVAELLVRHGASVNVADLWKFTPLHEAAAKGKYEICKLLLKHGADPTKKNRDGNTPLDLVKEGDTDIQDLLRGDAALLDAAKKGCLARVQKLCTPENINCRDTQGRNSTPLHLAAGYNNLEVAEYLLEHGADVNAQDKGGLIPLHNAASYGHVDIAALLIKYNTCVNATDKWAFTPLHEAAQKGRTQLCALLLAHGADPTMKNQEGQTPLDLATADDIRALLIDAMPPEALPTCFKPQATVVSASLISPASTPSCLSAASSIDNLTGPLAELAVGGASNAGDGAAGTERKEGEVAGLDMNISQFLKSLGLEHLRDIFETEQITLDVLADMGHEELKEIGINAYGHRHKLIKGVERLLGGQQGTNPYLTFHCVNQGTILLDLAPEDKEYQSVEEEMQSTIREHRDGGNAGGIFNRYNVIRIQKVVNKKLRERFCHRQKEVSEENHNHHNERMLFHGSPFINAIIHKGFDERHAYIGGMFGAGIYFAENSSKSNQYVYGIGGGTGCPTHKDRSCYICHRQMLFCRVTLGKSFLQFSTMKMAHAPPGHHSVIGRPSVNGLAYAEYVIYRGEQAYPEYLITYQIMKPEAPSQTATAAEQKT [TNKS],0.036,-0.258
MAASRSAGEAGPGGSQGRVVRMKRRGGRGPRRGPAGGGEKALKRLKLAVEEFVHATSEGEAPGGCEGRGAPVSFRPGGRKSRKELRKEKRHLRKARRLQRTAGPEQGPGLGGRSGAEEASGHRQDTEERARPAPSRDPSPPRKPRPSRVKAKATAATAKTRPSAAATAAARKRALLAANEEEDREIRKLERCLGLNKRKKKDGSSSVPLSFARDGLDYILGALESGKNSGLYDSSGEEEEDAGQTLPESDLESDSQDESEEEEEGDVEKEKKAQEAEAQSEDDDEDTEEEQGEEKEKGAQEKRRGKRVRFAEDEEKSENSSEDGDITDKSLCGSGEKYIPPHVRQAEETVDFKKKEELERLKKHVKGLLNRLSEPNMASISGQLEELYMAHSRKDMNDTLTSALMGACVTASAMPSRLMMEHVLLVSILHHTVGIEVGAHFLEAVVRKFDAIYKYGSEGKECDNLFTVIAHLYNFHVVQSLLIFDILKKLIGTFTEKDIELILLMLKNVGFSLRKDDALSLKELITEAQTKASGAGSEFQDQTRIRFMLETMLALKNNDMRKIPGYDPEPVEKLRKLQRALVRNAGSGSETQLRVSWDSVLSAEQTGRWWIVGSAWSGAPMIDNSHHTHLQKQLVGTVSSKILELARKQRMNTDIRRNIFCTIMTSEDFLDAFEKLLKLGLKDQQEREIIHVLMDCCLQEKTYNPFYAFLASKFCEYERRFQMTFQFSIWDKFRDLENLPATNFSNLVHLVAHLLKTKSLSLSILKVVEFSELDKPRVRFLRKVLSILLMETEVEDLSLIFTRVSDNPKLGVLREGLKLFISHFLLKNAQAHRSADEANVLREKADLATKCLQGKASLRM [NOM1],-1,0.759
MAAVAMTPNPVQTLQEEAVCAICLDYFTDPVSIGCGHNFCRVCVTQLWGGEDEEDRDELDREEEEEDGEEEEVEAVGAGAGWDTPMRDEDYEGDMEEEVEEEEEGVFWTSGMSRSSWDNMDYVWEEEDEEEDLDYYLGDMEEEDLRGEDEEDEEEVLEEVEEEDLDPVTPLPPPPAPRRCFTCPQCRKSFPRRSFRPNLQLANMVQVIRQMHPTPGRGSRVTDQGICPKHQEALKLFCEVDEEAICVVCRESRSHKQHSVVPLEEVVQEYKAKLQGHVEPLRKHLEAVQKMKAKEERRVTELKSQMKSELAAVASEFGRLTRFLAEEQAGLERRLREMHEAQLGRAGAAASRLAEQAAQLSRLLAEAQERSQQGGLRLLQDIKETFNRCEEVQLQPPEVWSPDPCQPHSHDFLTDAIVRKMSRMFCQAARVDLTLDPDTAHPALMLSPDRRGVRLAERRQEVADHPKRFSADCCVLGAQGFRSGRHYWEVEVGGRRGWAVGAARESTHHKEKVGPGGSSVGSGDASSSRHHHRRRRLHLPQQPLLQREVWCVGTNGKRYQAQSSTEQTLLSPSEKPRRFGVYLDYEAGRLGFYNAETLAHVHTFSAAFLGERVFPFFRVLSKGTRIKLCP [TRIM41],-0.886,0.254
MAAVGPPQQQVRMAHQQVWAALEVALRVPCLYIIDAIFNSYPDSSQSRFCIVLQIFLRLFGVFASSIVLILSQRSLFKFYTYSSAFLLAATSVLVNYYASLHIDFYGAYNTSAFGIELLPRKGPSLWMALIVLQLTFGIGYVTLLQIHSIYSQLIILDLLVPVIGLITELPLHIRETLLFTSSLILTLNTVFVLAVKLKWFYYSTRYVYLLVRHMYRIYGLQLLMEDTWKRIRFPDILRVFWLTRVTAQATVLMYILRMANETDSFFISWDDFWDLICNLIISGCDSTLTVLGMSAVISSVAHYLGLGILAFIGSTEEDDRRLGFVAPVLFFILALQTGLSGLRPEERLIRLSRNMCLLLTAVLHFIHGMTDPVLMSLSASHVSSFRRHFPVLFVSACLFILPVLLSYVLWHHYALNTWLFAVTAFCVELCLKVIVSLTVYTLFMIDGYYNVLWEKLDDYVYYVRSTGSIIEFIFGVVMFGNGAYTMMFESGSKIRAFMMCLHAYFNIYLQAKNGWKTFMNRRTAVKKINSLPEIKGSRLQEINDVCAICYHEFTTSARITPCNHYFHALCLRKWLYIQDTCPMCHQKVYIEDDIKDNSNVSNNNGFIPPNETPEEAVREAAAESDRELNEDDSTDCDDDVQRERNGVIQHTGAAAEEFNDDTD [RNF139],-0.206,-0.107
MAAWSPAAAAPLLRGIRGLPLHHRMFATQTEGELRVTQILKEKFPRATAIKVTDISGGCGAMYEIKIESEEFKEKRTVQQHQMVNQALKEEIKEMHGLRIFTSVPKR [BOLA3],0.378,0.234
MAEAATGFLEQLKSCIVWSWTYLWTVWFFIVLFLVYILRVPLKINDNLSTVSMFLNTLTPKFYVALTGTSSLISGLILIFEWWYFRKYGTSFIEQVSVSHLRPLLGGVDNNSSNNSNSSNGDSDSNRQSVSECKVWRNPLNLFRGAEYNRYTWVTGREPLTYYDMNLSAQDHQTFFTCDSDHLRPADAIMQKAWRERNPQARISAAHEALEINEIRSRVEVPLIASSTIWEIKLLPKCATAYILLAEEEATTIAEAEKLFKQALKAGDGCYRRSQQLQHHGSQYEAQHRRDTNVLVYIKRRLAMCARRLGRTREAVKMMRDLMKEFPLLSMFNIHENLLEALLELQAYADVQAVLAKYDDISLPKSATICYTAALLKARAVSDKFSPEAASRRGLSTAEMNAVEAIHRAVEFNPHVPKYLLEMKSLILPPEHILKRGDSEAIAYAFFHLAHWKRVEGALNLLHCTWEGTFRMIPYPLEKGHLFYPYPICTETADRELLPSFHEVSVYPKKELPFFILFTAGLCSFTAMLALLTHQFPELMGVFAKAMIDIFCSAEFRDWNCKSIFMRVEDELEIPPAPQSQHFQN [ST7],-0.381,0.0591
